From patent publication US11384119B2, “Compositions and methods for inhibiting CD279 interactions” (priority 2015, dated 2022) come the findings set out here.

In data set [1] the test system is tumour cell line LL/2. The data set can be described thus: In vivo LL/2 tumour model in C57Bl/6 mice. Particulars: 200 mg/kg IP for 7 days. The protocol: More particularly, mice strain C57Bl/6 (male, 4-weeks, initial body weight˜20-22 g) were inoculated with tumour cell line LL/2, at S.C. 10^5 per mouse. After 14 days post-implantation, the mice were treated with D-TW or D-TW-Scrambled for 7 days (at 200 mg/kg), via intraperitoneal (IP) injection.

For data set [2], the target named is T1, human PD-L1 (PD-1/PD-L1 interaction) (Homo sapiens, UniProt Q9NZQ7).
T1 construct: Fc
The data set is described as follows: Competition ELISA: peptide blocking of recombinant human PD-1 Fc binding to plate-coated human PD-L1 Fc. Particulars: peptide 0.008 μg/ml to 10 μg/ml, human PD-1 Fc 10 ng/ml; FIG. 1. The protocol: The binding of the WT or TF peptide to human PD-L1 was tested via competition ELISA. Varying concentrations of each peptide (0.008 μg/ml to 10 μg/ml) were mixed with a fixed concentration of recombinant human PD-1 Fc (10 ng/ml) and bound to a human PD-L1 Fc coated 96-well Immuno Maxisorp flat bottom plate. Binding was detected via a biotinylated anti-PD-1 antibody, streptavidin-horseradish peroxidase (HRP), and 3,3′,5,5′-Tetramethylbenzidine (TMB) substrate. Absorbance measurements were collected at 450 nm via a plate reader. The absorbance readings were plotted against the test peptide concentration.
More particularly, in this Example and referring to FIGS. 5A and 5B, WT represents SEQ ID NO:1; TF represents SEQ ID NO:2; ET represents SEQ ID NO:25; YT represents SEQ ID NO:28; and TW represents the reverse sequence of WT with D-amino acids, SEQ ID NO:34 (also referred to herein as “D-TW”). Different combination of such PD-L1 blocking peptides (3 and 10 μM) were mixed with recombinant human PD-1 Fc and bound to a human PD-L1 Fc coated 96-well Immuno Maxisorp flat bottom plate. Binding was detected via a biotinylated anti-PD-1 antibody, streptavidin-horseradish peroxidase (HRP), and 3,3′,5,5′-Tetramethylbenzidine (TMB) substrate. Absorbance measurements were collected at 450 nm via a plate reader. […]

The target in data set [3] is T2, PD-1/PD-L1 interaction (Homo sapiens, UniProt Q9NZQ7). The data set is described as follows: IL-2 production by PHA/PMA-activated Jurkat T cells co-cultured with recombinant human PD-L1 Fc (IL-2 ELISA). More on the design: Fc; host or cells: Jurkat T cells (PD-1 side). The data set is classed as cell-based. The conditions noted are these: 1-10 μg/ml peptide, PD-L1 Fc 8 μg/ml, 37° C. for 48 hours; FIG. 2. How it is done:
5×10^4 Jurkat T cells were activated with 1 μg/ml of phytohemagglutinin (PHA) and 50 ng/ml of phorbol 12-myristate 13-acetate (PMA) and co-cultured with recombinant human PD-L1 Fc (8 μg/ml) plus 1-10 μg/ml of WT (FIG. 2A), 1-10 μg/ml of TF (FIG. 2B), or 1-10 μg/ml of combined WT and TF (FIG. 2C) peptide at 37° C. for 48 hours. Cell culture supernatant was harvested and interleukin-2 (IL-2) production from Jurkat T cells was assessed by IL-2 ELISA. The numbers shown above each bar in FIG. 2 represent IL-2 concentrations.
In general terms: ELISA stands for enzyme-linked immunosorbent assay.
Target sequence in this assay (Q9NZQ7 19-238 limits assumed): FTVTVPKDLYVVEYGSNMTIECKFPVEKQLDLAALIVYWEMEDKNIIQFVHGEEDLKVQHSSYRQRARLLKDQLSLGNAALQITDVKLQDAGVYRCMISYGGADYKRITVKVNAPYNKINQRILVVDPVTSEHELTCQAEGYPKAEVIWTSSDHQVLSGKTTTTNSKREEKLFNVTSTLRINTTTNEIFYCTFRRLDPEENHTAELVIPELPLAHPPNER

The target in data set [4] is T2, PD-1/PD-L1 interaction. The data set can be described thus: IL-2 production by activated Jurkat T cells co-cultured with PD-L1-expressed U87 tumor cells (IL-2 ELISA). The data set is classed as cell-based. On the set-up: endogenous in cells; host or cells: U87 tumor cells (PD-L1); Jurkat T cells (PD-1). The conditions noted are these: for IL-2 concentration: different peptide concentrations, 37° C. for 48 hours, FIGS. 3A-3C; for blocking of PD-1/PD-L1 interaction (summary of the foregoing assay results): summary of FIGS. 1-3, the combination is compared with a single test peptide treatment. The protocol: In this Example, 5×10^4 Jurkat T cells were activated with […] of PHA and 50 ng/ml of PMA and co-cultured with 3×10^5 PD-L1-expressed U87 tumor cells mixed with different concentrations of WT (FIG. 3A), TF (FIG. 3B), or combined WT and TF (FIG. 3C) peptide at 37° C. for 48 hours. Cell culture supernatants were harvested and IL-2 production from the Jurkat T cells was assessed by IL-2 ELISA. The numbers shown above each bar in FIGS. 3A-3C represent IL-2 concentrations. […] Moreover, as shown in FIGS. 3A-3C, as the concentrations of the test peptides were increased, an increase in IL-2 concentration was observed.
Target sequence in this assay (Q9NZQ7 19-290): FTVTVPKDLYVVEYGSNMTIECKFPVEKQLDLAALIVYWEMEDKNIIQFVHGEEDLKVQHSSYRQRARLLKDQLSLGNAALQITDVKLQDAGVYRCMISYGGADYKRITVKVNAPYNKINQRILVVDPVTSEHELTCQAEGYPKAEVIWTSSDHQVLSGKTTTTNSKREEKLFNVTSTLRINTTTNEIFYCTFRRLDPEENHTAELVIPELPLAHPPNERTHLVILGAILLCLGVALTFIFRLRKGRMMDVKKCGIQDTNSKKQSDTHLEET

T1 sequence (Q9NZQ7 19-238 limits assumed): as the sequence (Q9NZQ7 19-238 limits assumed) above

As for `CSCC[C@@H](NC(=O)[C@@H](CO)NC(=O)[C@H]1CCCN1C(=O)[C@@H](CO)NC(=O)[C@@H](CC(N)=O)NC(=O)[C@@H](CCC(N)=O)NC(=O)[C@H](N)[C@H](C)O)C(=O)N[C@H](CCCNC(=N)N)C(=O)N[C@H](Cc1ccc(O)cc1)C(=O)N[C@H](Cc1c[nH]c2ccccc12)C(=O)O` [D-TW, TQNSPSMRYW], the toxicity to mice entry in data set [1] was “generally non-toxic”.

Take TAHPSPSPRSAGQF [TF]: the “percent (%) inhibition of PD-1/PD-L1 interaction” value in data set [2] is listed as “the percent (%) inhibition increased”. Besides, the IL-2 concentration entry in data set [3] and in data set [4] was “yielded an increase in IL-2 concentration” each time. In data set [4], the “blocking of PD-1/PD-L1 interaction (summary of the foregoing assay results)” value is recorded as “able to block PD-1/PD-L1 interaction”.

Turning to WYRMSPSNQT [WT], in data set [2], the “percent (%) inhibition of PD-1/PD-L1 interaction” value is listed as “the percent (%) inhibition increased”. In data set [4], the IL-2 concentration entry is on record as “yielded an increase in IL-2 concentration” and the “blocking of PD-1/PD-L1 interaction (summary of the foregoing assay results)” value is “able to block PD-1/PD-L1 interaction”.
